According to paper PMC10133702:
Where two headings read alike, the source gives them in different places.

Assays:
Test in all cases: radioligand binding
[1] = target: [H69A]Ls-AChBP, Ub-tagged (Lymnaea stagnalis) (UniProt P58154)
[2] = target: Ubiquitin (Ub)-tagged Ls-AChBP, wild type (Lymnaea stagnalis) (UniProt P58154)
[3] = target: [R23D]Ls-AChBP, Ub-tagged (Lymnaea stagnalis) (UniProt P58154)
[4] = target: [S186E]Ls-AChBP, Ub-tagged (Lymnaea stagnalis) (UniProt P58154)
[5] = target: [T184F S186E]Ls-AChBP, Ub-tagged (Lymnaea stagnalis) (UniProt P58154)
[6] = target: [Q55K]Ls-AChBP, Ub-tagged (Lymnaea stagnalis) (UniProt P58154)
[7] = target: Ubiquitin (Ub)-tagged Ls-AChBP, wild type (Lymnaea stagnalis) (UniProt P58154); remark: listed apart in the source
[8] = target: [T184F]Ls-AChBP, Ub-tagged (Lymnaea stagnalis) (UniProt P58154)
[9] = target: [T184K]Ls-AChBP, Ub-tagged (Lymnaea stagnalis) (UniProt P58154)

Substance	IC50 [1] [µM]	IC50 [2] [µM]	IC50 [3] [µM]	IC50 [4] [µM]	IC50 [5] [µM]	IC50 [6] [µM]	IC50 [7] [µM]	IC50 [8] [µM]	IC50 [9] [µM]
VxXXB-C(19–50), full-length C-terminal domain of αD-conotoxin VxXXB (peptide)	10	10	10	0.09	0.03	29.7	7.2	0.58	> 100
VxXXB-C(21–50), C-terminal domain of αD-conotoxin VxXXB (peptide)				0.04	0.05	36	10	7.2	55
VxXXB-CNC, full-length synthetic VxXXB (peptide)	> 10	0.8	> 10		0.004				
native αD-conotoxin VxXXB (from UniProt P0C1W6 46-95) (natural protein)					0.001		0.011		
